Laboratory results taken from article PMC8442553 (Science (New York, N.Y.), 2019).

What was measured:
Assay in all cases: cryo-EM structure
[1] = biological target: T1, Rsc3 (yeast, UniProt Q06639 1-885)
T1 sequence: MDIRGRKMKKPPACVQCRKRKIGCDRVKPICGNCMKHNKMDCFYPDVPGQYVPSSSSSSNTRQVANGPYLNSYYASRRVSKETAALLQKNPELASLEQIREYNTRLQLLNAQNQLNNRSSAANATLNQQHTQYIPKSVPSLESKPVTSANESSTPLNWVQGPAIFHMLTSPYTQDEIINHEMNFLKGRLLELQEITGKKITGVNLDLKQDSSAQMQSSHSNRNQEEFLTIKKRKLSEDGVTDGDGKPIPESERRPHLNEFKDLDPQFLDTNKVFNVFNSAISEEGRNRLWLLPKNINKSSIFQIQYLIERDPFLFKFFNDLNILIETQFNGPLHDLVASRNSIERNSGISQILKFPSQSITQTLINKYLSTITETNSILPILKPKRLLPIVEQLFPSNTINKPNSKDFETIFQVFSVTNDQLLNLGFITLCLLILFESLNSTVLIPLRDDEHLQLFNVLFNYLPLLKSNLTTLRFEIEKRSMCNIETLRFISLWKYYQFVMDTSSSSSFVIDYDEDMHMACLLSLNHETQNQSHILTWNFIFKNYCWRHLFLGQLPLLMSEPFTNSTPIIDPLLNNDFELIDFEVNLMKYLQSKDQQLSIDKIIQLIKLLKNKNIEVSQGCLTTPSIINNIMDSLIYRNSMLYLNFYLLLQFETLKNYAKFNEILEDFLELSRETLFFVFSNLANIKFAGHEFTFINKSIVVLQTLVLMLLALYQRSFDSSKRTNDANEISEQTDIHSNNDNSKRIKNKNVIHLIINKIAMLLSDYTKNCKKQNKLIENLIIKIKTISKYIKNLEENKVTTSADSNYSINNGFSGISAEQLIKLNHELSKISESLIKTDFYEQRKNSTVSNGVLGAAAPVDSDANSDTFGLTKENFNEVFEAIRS

[2] = biological target: T2, Rsc30 (yeast, UniProt P38781 1-883)
T2 sequence: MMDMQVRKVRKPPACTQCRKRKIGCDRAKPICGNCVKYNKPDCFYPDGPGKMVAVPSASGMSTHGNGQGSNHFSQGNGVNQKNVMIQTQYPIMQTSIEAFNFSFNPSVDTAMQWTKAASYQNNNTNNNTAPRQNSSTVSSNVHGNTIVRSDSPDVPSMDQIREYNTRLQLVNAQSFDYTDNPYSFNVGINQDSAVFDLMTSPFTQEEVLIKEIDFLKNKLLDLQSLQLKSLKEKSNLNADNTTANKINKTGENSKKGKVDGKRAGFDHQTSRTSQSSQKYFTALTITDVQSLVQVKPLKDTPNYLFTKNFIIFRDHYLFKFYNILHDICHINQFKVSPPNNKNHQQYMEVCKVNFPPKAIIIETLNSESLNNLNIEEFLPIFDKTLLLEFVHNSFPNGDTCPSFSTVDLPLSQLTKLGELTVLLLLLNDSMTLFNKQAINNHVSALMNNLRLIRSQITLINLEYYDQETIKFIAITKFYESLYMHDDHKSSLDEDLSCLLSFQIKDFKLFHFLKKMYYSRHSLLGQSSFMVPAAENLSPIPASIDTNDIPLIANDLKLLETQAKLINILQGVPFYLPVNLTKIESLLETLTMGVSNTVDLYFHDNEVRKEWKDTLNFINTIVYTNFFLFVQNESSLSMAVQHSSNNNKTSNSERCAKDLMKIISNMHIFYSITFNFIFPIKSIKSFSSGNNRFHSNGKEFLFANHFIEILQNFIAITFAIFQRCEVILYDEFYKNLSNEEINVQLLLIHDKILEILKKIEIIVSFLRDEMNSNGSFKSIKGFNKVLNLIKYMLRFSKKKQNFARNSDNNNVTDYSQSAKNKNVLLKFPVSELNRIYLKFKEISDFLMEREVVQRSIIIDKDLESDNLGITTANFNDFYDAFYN

[3] = biological target: T3, Sth1 (yeast, UniProt P32597 1-1359)
T3 sequence: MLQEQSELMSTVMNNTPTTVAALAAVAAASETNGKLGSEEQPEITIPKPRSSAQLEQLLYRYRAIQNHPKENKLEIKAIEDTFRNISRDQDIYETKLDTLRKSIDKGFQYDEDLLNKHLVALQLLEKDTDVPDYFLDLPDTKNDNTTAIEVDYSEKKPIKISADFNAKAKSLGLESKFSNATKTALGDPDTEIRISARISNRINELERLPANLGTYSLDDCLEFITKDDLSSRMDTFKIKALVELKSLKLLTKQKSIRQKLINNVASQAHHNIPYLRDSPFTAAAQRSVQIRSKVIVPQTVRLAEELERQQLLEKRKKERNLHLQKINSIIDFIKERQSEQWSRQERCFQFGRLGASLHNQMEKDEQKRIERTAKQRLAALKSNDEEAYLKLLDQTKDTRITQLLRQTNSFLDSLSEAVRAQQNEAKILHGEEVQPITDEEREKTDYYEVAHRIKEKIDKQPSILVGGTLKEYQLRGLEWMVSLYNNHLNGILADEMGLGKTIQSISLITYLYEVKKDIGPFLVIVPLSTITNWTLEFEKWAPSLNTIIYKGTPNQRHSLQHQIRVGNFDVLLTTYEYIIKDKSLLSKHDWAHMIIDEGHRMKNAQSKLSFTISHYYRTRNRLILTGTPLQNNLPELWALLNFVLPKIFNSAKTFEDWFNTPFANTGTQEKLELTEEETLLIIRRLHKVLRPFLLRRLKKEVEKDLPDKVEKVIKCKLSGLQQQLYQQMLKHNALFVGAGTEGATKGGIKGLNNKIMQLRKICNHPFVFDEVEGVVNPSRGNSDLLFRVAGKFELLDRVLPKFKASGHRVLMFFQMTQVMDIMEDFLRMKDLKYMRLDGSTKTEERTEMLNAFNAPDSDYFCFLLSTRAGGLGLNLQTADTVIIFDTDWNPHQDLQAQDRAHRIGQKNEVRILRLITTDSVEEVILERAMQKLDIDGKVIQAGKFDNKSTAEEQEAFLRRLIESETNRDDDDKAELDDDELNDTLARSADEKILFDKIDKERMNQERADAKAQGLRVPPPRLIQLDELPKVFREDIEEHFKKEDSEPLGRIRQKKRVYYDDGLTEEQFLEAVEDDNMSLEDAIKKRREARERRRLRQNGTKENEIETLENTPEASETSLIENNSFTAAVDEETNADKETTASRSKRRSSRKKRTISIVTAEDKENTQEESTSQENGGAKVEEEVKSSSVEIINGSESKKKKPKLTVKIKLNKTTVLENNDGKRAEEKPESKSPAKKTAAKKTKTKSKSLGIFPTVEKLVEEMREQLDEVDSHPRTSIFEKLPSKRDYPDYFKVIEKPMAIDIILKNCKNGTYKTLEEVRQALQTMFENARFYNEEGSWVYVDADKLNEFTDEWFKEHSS

Measured: binding result

B1: Rsc9 (natural protein, yeast)
chain: MNSLASNTPLNGTPVSEAPATSSEPVNMFETMVANPIKVSRLQSNGVLTGPAANTKSIHYSLANFNVFQSLPKETARGVDDLTRMEMALLSGIPEEIKWSLKKYLTYSNKAPYMISLRTLPDLLPLFKTFILPLERIVEGLNKSSICDSKAMDSLQMGLNALLILRNLAQDTDSVQILVKDREIKSFILFILKKFQCVATGDNKWQLYEGNATFFNELTHYTLDLMEAISSYIAPAMKDDHYFQTLVSILNYTKDRYMVISILRSLSRLLVRSKANEESAADNLDHKTLSLIVSFLLLECDSELIIASLDFLYQYILPGSQRITELFKSKECSLILEATLPNLLSYNIATPDYHLLQKHKIRLIKRLKPPAPKEPPNLSEDLFQQLFKLNEPLRSTAWLRCCFEPVQEAEFTQISLWRSYESKFGQPVRESGRKLLPAVEFIKNVSNAFNNAAAIVITDPVTGKKRFVIKGIQPRFKALGIADGERESQVPISALKSKFLNDSKEITPARQNSIPEVKFPQELSDVSKVACTFLCLLSNDTDDGAGSAFCQRIRPLVLHKLADIPPLTLALSEYMENTSGL
binds: [1] | [2] | [3]
